Molecular target: human 40S ribosomal subunit labelled with Cy3 on the N-terminus of uS19 (human) (UniProt P62841)
Assay: FRET or BRET

Q: What does the source list for “Bat-Hp-CoV Nsp1, fluorescently labelled (wild type) (natural protein)”?
A: fold inhibition of eIF1A association with the 40S subunit: > 2 fold; koff: < 0.01 s⁻¹; persistence of the FRET signal: > 100 s

— PMC10312502
